The values that follow come from the supplement of paper PMC5998384.

Series [1] relates to HeLa Kyoto. Put plainly: solubility in G1/S (NP-40 vs SDS abundance) (log2 ratio); higher = more soluble. The note with it: cell cycle stage: G1/S.
The test system of series [2] is HeLa Kyoto. Put plainly: melting temperature (median over replicates), in situ; higher = more thermally stable.
For series [3], the system named is HeLa Kyoto. Put plainly: solubility change mitosis vs G1/S (difference of NP-40 vs SDS log2 ratios) (log2 ratio difference); higher = more soluble in mitosis.
The subject of series [4] is HeLa Kyoto. Put plainly: thermal stability score vs G1/S (z-score of summed log2 fold changes over temperatures); higher = more thermally stable than in G1/S.
The mark [5] stands for this setting: cell cycle stage: early G1 (4.5 h after nocodazole release).
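For melting temperature (median over replicates), in situ in this document: HeLa Kyoto cells synchronized by double thymidine or nocodazole block, proteins quantified by TMT10plex mass spectrometry, three independent biological replicates.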
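For solubility change mitosis vs G1/S (difference of NP-40 vs SDS log2 ratios) in this document: synchronized HeLa Kyoto cells (double thymidine block for G1/S, nocodazole release for mitosis), protein amounts in NP-40 versus SDS lysates quantified by mass spectrometry, three biological replicates.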
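For solubility in G1/S (NP-40 vs SDS abundance) in this document: HeLa Kyoto cells arrested at G1/S by double thymidine block, proteins quantified by TMT10plex mass spectrometry in mild NP-40 versus SDS extracts, three biological replicates.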
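For thermal stability score vs G1/S (z-score of summed log2 fold changes over temperatures) in this document: synchronized HeLa Kyoto cells, proteins quantified by TMT10plex mass spectrometry, three biological replicates, mitosis taken 0.5 h after nocodazole release, G1/S directly after double thymidine block.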

Turning to “MARNAEKAMTALARFRQAQLEEGKVKERRPFLASECTELPKAEKWRRQIIGEISKKVAQIQNAGLGEFRIRDLNDEINKLLREKGHWEVRIKELGGPDYGKVGPKMLDHEGKEVPGNRGYKYFGAAKDLPGVRELFEKEPLPPPRKTRAELMKAIDFEYYGYLDEDDGVIVPLEQEYEKKLRAELVEKWKAEREARLARGEKEEEEEEEEEINIYAVTEEESDEEGSQEKGGDDSQQKFIAHVPVPSQQEIEEALVRRKKMELLQKYASETLQAQSEEARRLLGY [ISY1]”, in series [1], the “solubility in G1/S (log2)” value stood at 0.128. Moreover, the melting temperature is 46.7 °C in series [2] (cell cycle stage: G1/S) and 51.2 °C in series [2] (cell cycle stage: mitosis). The “solubility change mitosis (log2)” value in series [3] stood at 0.254. Moreover, the thermal stability score is -2.75 in series [4] (setting [5]) and -1.6 in series [4] (cell cycle stage: mitosis).
On to “MARPDDEEGAAVAPGHPLAKGYLPLPRGAPVGKESVELQNGPKAGTFPVNGAPRDSLAAASGVLGGPQTPLAPEEETQARLLPAGAGAETPGAESSPLPLTALSPRRFVVLLIFSLYSLVNAFQWIQYSIISNVFEGFYGVTLLHIDWLSMVYMLAYVPLIFPATWLLDTRGLRLTALLGSGLNCLGAWIKCGSVQQHLFWVTMLGQCLCSVAQVFILGLPSRIASVWFGPKEVSTACATAVLGNQLGTAVGFLLPPVLVPNTQNDTNLLACNISTMFYGTSAVATLLFILTAIAFKEKPRYPPSQAQAALQDSPPEEYSYKKSIRNLFKNIPFVLLLITYGIMTGAFYSVSTLLNQMILTYYEGEEVNAGRIGLTLVVAGMVGSILCGLWLDYTKTYKQTTLIVYILSFIGMVIFTFTLDLRYIIIVFVTGGVLGFFMTGYLPLGFEFAVEITYPESEGTSSGLLNASAQIFGILFTLAQGKLTSDYGPKAGNIFLCVWMFIGIILTALIKSDLRRHNINIGITNVDVKAIPADSPTDQEPKTVMLSKQSESAI [FLVCR1]”, for which the “solubility in G1/S (log2)” value in series [1] is -0.162. Moreover, the results for the melting temperature in series [2] (cell cycle stage: G1/S) and in series [2] (cell cycle stage: mitosis) were 57.4 °C and 59.1 °C, respectively. Also, the “solubility change mitosis (log2)” value in series [3] was -0.0168. The thermal stability score in series [4] (setting [5]) was -1.21; in series [4] (cell cycle stage: mitosis) it was -2.85.
For “MARRGWRRAPLRRGVGSSPRARRLMRPLWLLLAVGVFDWAGASDGGGGEARAMDEEIVSEKQAEESHRQDSANLLIFILLLTLTILTIWLFKHRRARFLHETGLAMIYGLLVGLVLRYGIHVPSDVNNVTLSCEVQSSPTTLLVNVSGKFYEYMLKGEISSHELNNVQDNEMLRKVTFDPEVFFNILLPPIIFYAGYSLKRRHFFRNLGSILAYAFLGTAISCFVIGSIMYGCVTLMKVTGQLAGDFYFTDCLLFGAIVSATDPVTVLAIFHELQVDVELYALLFGESVLNDAVAIVLSSSIVAYQPAGDNSHTFDVTAMFKSIGIFLGIFSGSFAMGAATGVVTALVTKFTKLREFQLLETGLFFLMSWSTFLLAEAWGFTGVVAVLFCGITQAHYTYNNLSTESQHRTKQLFELLNFLAENFIFSYMGLTLFTFQNHVFNPTFVVGAFVAIFLGRAANIYPLSLLLNLGRRSKIGSNFQHMMMFAGLRGAMAFALAIRDTATYARQMMFSTTLLIVFFTVWVFGGGTTAMLSCLHIRVGVDSDQEHLGVPENERRTTKAESAWLFRMWYNFDHNYLKPLLTHSGPPLTTTLPACCGPIARCLTSPQAYENQEQLKDDDSDLILNDGDISLTYGDSTVNTEPATSSAPRRFMGNSSEDALDRELAFGDHELVIRGTRLVLPMDDSEPPLNLLDNTRHGPA [SLC9A6]”, the “solubility in G1/S (log2)” value in series [1] was determined as 0.0823. Besides, the melting temperature in series [2] (cell cycle stage: G1/S) is 56.1 °C; in series [2] (cell cycle stage: mitosis) it was 57.1 °C. Moreover, the “solubility change mitosis (log2)” value in series [3] is -0.268. The thermal stability score in series [4] (setting [5]) was -2.9; in series [4] (cell cycle stage: mitosis), -3.5.
In the case of “MARYEEVSVSGFEEFHRAVEQHNGKTIFAYFTGSKDAGGKSWCPDCVQAEPVVREGLKHISEGCVFIYCQVGEKPYWKDPNNDFRKNLKVTAVPTLLKYGTPQKLVESECLQANLVEMLFSED [TXNDC17]”, in series [1], the “solubility in G1/S (log2)” value was determined as 0.304. The melting temperature was determined as 50.8 °C in series [2] (cell cycle stage: G1/S) and 51.6 °C in series [2] (cell cycle stage: mitosis). The “solubility change mitosis (log2)” value in series [3] was -0.128. The thermal stability score came out at 4.94 in series [4] (setting [5]) and 2.6 in series [4] (cell cycle stage: mitosis).
Regarding “MASADSRRVADGGGAGGTFQPYLDTLRQELQQTDPTLLSVVVAVLAVLLTLVFWKLIRSRRSSQRAVLLVGLCDSGKTLLFVRLLTGLYRDTQTSITDSCAVYRVNNNRGNSLTLIDLPGHESLRLQFLERFKSSARAIVFVVDSAAFQREVKDVAEFLYQVLIDSMGLKNTPSFLIACNKQDIAMAKSAKLIQQQLEKELNTLRVTRSAAPSTLDSSSTAPAQLGKKGKEFEFSQLPLKVEFLECSAKGGRGDVGSADIQDLEKWLAKIA [SRPRB]”, the “solubility in G1/S (log2)” value in series [1] stood at 0.446. In addition, the melting temperature in series [2] (cell cycle stage: G1/S) came to 50.2 °C; in series [2] (cell cycle stage: mitosis), 50 °C. In addition, in series [3], the “solubility change mitosis (log2)” value was -0.0359. The thermal stability score was 3.56 in series [4] (setting [5]) and 5.21 in series [4] (cell cycle stage: mitosis).
With “MASATAAAARRGLGRALPLFWRGYQTERGVYGYRPRKPESREPQGALERPPVDHGLARLVTVYCEHGHKAAKINPLFTGQALLENVPEIQALVQTLQGPFHTAGLLNMGKEEASLEEVLVYLNQIYCGQISIETSQLQSQDEKDWFAKRFEELQKETFTTEERKHLSKLMLESQEFDHFLATKFSTVKRYGGEGAESMMGFFHELLKMSAYSGITDVIIGMPHRGRLNLLTGLLQFPPELMFRKMRGLSEFPENFSATGDVLSHLTSSVDLYFGAHHPLHVTMLPNPSHLEAVNPVAVGKTRGRQQSRQDGDYSPDNSAQPGDRVICLQVHGDASFCGQGIVPETFTLSNLPHFRIGGSVHLIVNNQLGYTTPAERGRSSLYCSDIGKLVGCAIIHVNGDSPEEVVRATRLAFEYQRQFRKDVIIDLLCYRQWGHNELDEPFYTNPIMYKIIRARKSIPDTYAEHLIAGGLMTQEEVSEIKSSYYAKLNDHLNNMAHYRPPALNLQAHWQGLAQPEAQITTWSTGVPLDLLRFVGMKSVEVPRELQMHSHLLKTHVQSRMEKMMDGIKLDWATAEALALGSLLAQGFNVRLSGQDVGRGTFSQRHAIVVCQETDDTYIPLNHMDPNQKGFLEVSNSPLSEEAVLGFEYGMSIESPKLLPLWEAQFGDFFNGAQIIFDTFISGGEAKWLLQSGIVILLPHGYDGAGPDHSSCRIERFLQMCDSAEEGVDGDTVNMFVVHPTTPAQYFHLLRRQMVRNFRKPLIVASPKMLLRLPAAVSTLQEMAPGTTFNPVIGDSSVDPKKVKTLVFCSGKHFYSLVKQRESLGAKKHDFAIIRVEELCPFPLDSLQQEMSKYKHVKDHIWSQEEPQNMGPWSFVSPRFEKQLACKLRLVGRPPLPVPAVGIGTVHLHQHEDILAKTFA [DHTKD1]”, the “solubility in G1/S (log2)” value in series [1] is -0.0401. Also, the melting temperature in series [2] (cell cycle stage: G1/S) worked out at 51.2 °C; in series [2] (cell cycle stage: mitosis), 51.4 °C. In addition, the “solubility change mitosis (log2)” value in series [3] is -0.0218. Besides, the thermal stability score in series [4] (setting [5]) is -0.797; in series [4] (cell cycle stage: mitosis), -0.271.
